{
  "source": "IntAct's records for PubMed 21131967",
  "parents": {"B1": {"name": "N-lysine methyltransferase SETD6 (Homo sapiens), Q8TBK2 (parent)", "chain": "MATQAKRPRVAGPVDGGDLDPVACFLSWCRRVGLELSPKVSERAGGRRTRGGARAALTSPPAQVAVSRQGTVAGYGMVARESVQAGELLFVVPRAALLSQHTCSIGGLLERERVALQSQSGWVPLLLALLHELQAPASRWRPYFALWPELGRLEHPMFWPEEERRCLLQGTGVPEAVEKDLANIRSEYQSIVLPFMEAHPDLFSLRVRSLELYHQLVALVMAYSFQEPLEEEEDEKEPNSPVMVPAADILNHLANHNANLEYSANCLRMVATQPIPKGHEIFNTYGQMANWQLIHMYGFVEPYPDNTDDTADIQMVTVREAALQGTKTEAERHLVYERWDFLCKLEMVGEEGAFVIGREEVLTEEELTTTLKVLCMPAEEFRELKDQDGGGDDKREEGSLTITNIPKLKASWRQLLQNSVLLTLQTYATDLKTDQGLLSNKEVYAKLSWREQQALQVRYGQKMILHQLLELTS"}, "B2": {"name": "Transcription factor p65 (Mus musculus), Q04207 (parent)", "chain": "MDDLFPLIFPSEPAQASGPYVEIIEQPKQRGMRFRYKCEGRSAGSIPGERSTDTTKTHPTIKINGYTGPGTVRISLVTKDPPHRPHPHELVGKDCRDGYYEADLCPDRSIHSFQNLGIQCVKKRDLEQAISQRIQTNNNPFHVPIEEQRGDYDLNAVRLCFQVTVRDPAGRPLLLTPVLSHPIFDNRAPNTAELKICRVNRNSGSCLGGDEIFLLCDKVQKEDIEVYFTGPGWEARGSFSQADVHRQVAIVFRTPPYADPSLQAPVRVSMQLRRPSDRELSEPMEFQYLPDTDDRHRIEEKRKRTYETFKSIMKKSPFNGPTEPRPPTRRIAVPTRNSTSVPKPAPQPYTFPASLSTINFDEFSPMLLPSGQISNQALALAPSSAPVLAQTMVPSSAMVPLAQPPAPAPVLTPGPPQSLSAPVPKSTQAGEGTLSEALLHLQFDADEDLGALLGNSTDPGVFTDLASVDNSEFQQLLNQGVSMSHSTAEPMLMEYPEAITRLVTGSQRPPDPAPTPLGTSGLPNGLSGDEDFSSIADMDFSALLSQISS", "partner": "B1 chain"}, "B3": {"name": "Transcription factor p65 (Mus musculus), Q04207 (parent)", "chain": "B2 chain", "partner": "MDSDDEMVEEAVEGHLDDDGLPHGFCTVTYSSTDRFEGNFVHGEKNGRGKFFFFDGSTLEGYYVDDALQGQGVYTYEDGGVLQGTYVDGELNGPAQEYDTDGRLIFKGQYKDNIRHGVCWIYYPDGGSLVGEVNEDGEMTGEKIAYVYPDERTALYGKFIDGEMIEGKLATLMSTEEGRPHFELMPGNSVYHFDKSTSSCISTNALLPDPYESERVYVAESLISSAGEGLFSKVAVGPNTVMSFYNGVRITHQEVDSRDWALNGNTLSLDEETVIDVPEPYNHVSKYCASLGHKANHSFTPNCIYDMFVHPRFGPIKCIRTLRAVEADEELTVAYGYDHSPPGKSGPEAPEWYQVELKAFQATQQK"}},
  "data": [
    {"variants_of": "B1", "conditions": "with tf65_mouse Rela, Q04207", "values": [
      {"variant": "MATQAKRPRVAGPVDGGDLDPVACFLSWCRRVGLELSPKVSERAGGRRTRGGARAALTSPPAQVAVSRQGTVAGYGMVARESVQAGELLFVVPRAALLSQHTCSIGGLLERERVALQSQSGWVPLLLALLHELQAPASRWRPYFALWPELGRLEHPMFWPEEERRCLLQGTGVPEAVEKDLANIRSEYQSIVLPFMEAHPDLFSLRVRSLELYHQLVALVMAYSFQEPLEEEEDEKEPNSPVMVPAADILNHLANHNANLEYSANCLRMVATQPIPKGHEIFNTAGQMANWQLIHMYGFVEPYPDNTDDTADIQMVTVREAALQGTKTEAERHLVYERWDFLCKLEMVGEEGAFVIGREEVLTEEELTTTLKVLCMPAEEFRELKDQDGGGDDKREEGSLTITNIPKLKASWRQLLQNSVLLTLQTYATDLKTDQGLLSNKEVYAKLSWREQQALQVRYGQKMILHQLLELTS", "note": "[Y285A]", "effect of a mutation on the interaction": "disrupting interaction"}
    ]},
    {"variants_of": "B2", "conditions": "with setd6_human SETD6, Q8TBK2", "values": [
      {"variant": "MDDLFPLIFPSEPAQASGPYVEIIEQPKQRGMRFRYKCEGRSAGSIPGERSTDTTKTHPTIKINGYTGPGTVRISLVTKDPPHRPHPHELVGKDCRDGYYEADLCPDRSIHSFQNLGIQCVKKRDLEQAISQRIQTNNNPFHVPIEEQRGDYDLNAVRLCFQVTVRDPAGRPLLLTPVLSHPIFDNRAPNTAELKICRVNRNSGSCLGGDEIFLLCDKVQKEDIEVYFTGPGWEARGSFSQADVHRQVAIVFRTPPYADPSLQAPVRVSMQLRRPSDRELSEPMEFQYLPDTDDRHRIEEKRKRTYETFRSIMKKSPFNGPTEPRPPTRRIAVPTRNSTSVPKPAPQPYTFPASLSTINFDEFSPMLLPSGQISNQALALAPSSAPVLAQTMVPSSAMVPLAQPPAPAPVLTPGPPQSLSAPVPKSTQAGEGTLSEALLHLQFDADEDLGALLGNSTDPGVFTDLASVDNSEFQQLLNQGVSMSHSTAEPMLMEYPEAITRLVTGSQRPPDPAPTPLGTSGLPNGLSGDEDFSSIADMDFSALLSQISS", "note": "[K310R]", "effect of a mutation on the interaction": "disrupting interaction"}
    ]},
    {"variants_of": "B3", "conditions": "with setd7_human SETD7, Q8WTS6", "values": [
      {"variant": "MDDLFPLIFPSEPAQASGPYVEIIEQPKQRGMRFRYKCEGRSAGSIPGERSTDTTKTHPTIKINGYTGPGTVRISLVTKDPPHRPHPHELVGKDCRDGYYEADLCPDRSIHSFQNLGIQCVKKRDLEQAISQRIQTNNNPFHVPIEEQRGDYDLNAVRLCFQVTVRDPAGRPLLLTPVLSHPIFDNRAPNTAELKICRVNRNSGSCLGGDEIFLLCDKVQKEDIEVYFTGPGWEARGSFSQADVHRQVAIVFRTPPYADPSLQAPVRVSMQLRRPSDRELSEPMEFQYLPDTDDRHRIEEKRKRTYETFRSIMKKSPFNGPTEPRPPTRRIAVPTRNSTSVPKPAPQPYTFPASLSTINFDEFSPMLLPSGQISNQALALAPSSAPVLAQTMVPSSAMVPLAQPPAPAPVLTPGPPQSLSAPVPKSTQAGEGTLSEALLHLQFDADEDLGALLGNSTDPGVFTDLASVDNSEFQQLLNQGVSMSHSTAEPMLMEYPEAITRLVTGSQRPPDPAPTPLGTSGLPNGLSGDEDFSSIADMDFSALLSQISS", "note": "[K310R]", "effect of a mutation on the interaction": "disrupting interaction"}
    ]}
  ]
}
